# Measurements as given in patent US20030145347A1.
# Key:
# Test in all cases: cell-based or functional assay
# [1] = target: rice thioredoxin with S-tag (recombinant, expressed in E. coli from pNOV4113) (rice)
# [2] = target: soybean thioredoxin as labelled in the 4th table (with or without S-tag not told) (soybean)
# [3] = target: wheat thioredoxin with S-tag (recombinant, expressed in E. coli from pNOV4114) (wheat (T. aestivium [sic]))
# Chain of E. coli thioredoxin reductase (T-7915, Sigma, St. Louis, Mo.) (P0A9P4 2-321 limits assumed): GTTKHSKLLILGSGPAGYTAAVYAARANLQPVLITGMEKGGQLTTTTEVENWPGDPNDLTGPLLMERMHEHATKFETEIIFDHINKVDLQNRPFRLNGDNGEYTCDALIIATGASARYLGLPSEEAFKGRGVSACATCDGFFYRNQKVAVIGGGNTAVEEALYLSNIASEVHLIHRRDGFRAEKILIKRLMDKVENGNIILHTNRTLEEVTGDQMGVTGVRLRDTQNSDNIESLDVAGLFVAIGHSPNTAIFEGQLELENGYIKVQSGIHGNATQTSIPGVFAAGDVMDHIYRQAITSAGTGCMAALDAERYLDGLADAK
Substance,"change in A412 over 4 min, NADPH thioredoxin reductase DTNB assay; 30 ul (about 15 ug) rice thioredoxin, 1.5 ul (about 0.5 ug) Arabidopsis reductase [1] [A412]","change in A412 over 4 min, NADPH thioredoxin reductase DTNB assay; 30 ul (about 12 ug) soybean thioredoxin, 1.5 ul (about 0.5 ug) Arabidopsis reductase [2] [A412]","change in A412 over 4 min, NADPH thioredoxin reductase DTNB assay; 30 ul (about 0.6 ug) wheat thioredoxin, 1.5 ul (0.5 ug) Arabidopsis reductase [3] [A412]","change in A412 over 4 min, NADPH thioredoxin reductase DTNB assay; 30 ul (about 1.2 ug) wheat thioredoxin, 1.5 ul (0.5 ug) Arabidopsis reductase [3] [A412]","change in A412 over 4 min, NADPH thioredoxin reductase DTNB assay; 30 ul (about 15 ug) rice thioredoxin, 2.3 ug E. coli reductase [1] [A412]","change in A412 over 4 min, NADPH thioredoxin reductase DTNB assay; 30 ul (about 6 ug) soybean thioredoxin, 2.3 ug E. coli reductase [2] [A412]","change in A412 over 4 min, NADPH thioredoxin reductase DTNB assay; 30 ul (about 12 ug) soybean thioredoxin, 2.3 ug E. coli reductase [2] [A412]","change in A412 over 4 min, NADPH thioredoxin reductase DTNB assay; 30 ul (about 0.6 ug) wheat thioredoxin, 2.3 ug E. coli reductase [3] [A412]"
"Arabidopsis NADPH thioredoxin reductase without S-tag (recombinant, expressed in E. coli from pNOV4115) (from UniProt Q39243 43-375) (enzyme)",0.66,0.42,0.08,0.08,,,,
"E. coli thioredoxin reductase (T-7915, Sigma, St. Louis, Mo.) (from UniProt P0A9P4 2-321) (enzyme)",,,,,0.3,0.2,0.333,0.3
